B1: C6HL3-10 (scFv)
scFv: QVQLLQSGAELKKPGESLKISCKGSGYSFTSYWIAWVRQMPGKGLEYMGLIYPGDSDTKYSPSFQGQVTISVDKSVSTAYLQWSSLKPSDSAVYFCARHDVGYCSSSNCAKWPEYFQHWGQGTLVTVSSGGGGSGGGGSGGGGSQSVLTQPPSVSAAPGQKVTISCSGSSSNIGNNYVSWYQQLPGTAPKLLIYGHTNRPAGVPDRFSGSKSGTSASLAISGFRSEDEADYYCAAWEDPWYGWVFGGGTKLTVLG
notes: label as printed (probably C6ML3-10)
B2: C6ML3-3 (scFv)
scFv: QVQLLQSGAELKKPGESLKISCKGSGYSFTSYWIAWVRQMPGKGLEYMGLIYPGDSDTKYSPSFQGQVTISVDKSVSTAYLQWSSLKPSDSAVYFCARHDVGYCSSSNCAKWPEYFQHWGQGTLVTVSSGGGGSGGGGSGGGGSQSVLTQPPSVSAAPGQKVTISCSGSSSNIGNNYVSWYQQLPGTAPKLLIYGHTNRPAGVPDRFSGSKSGTSASLAISGFRSEDEADYYCATWDYALSGWVFGGGTKLTVLG
B3: C6ML3-4 (scFv)
scFv: QVQLLQSGAELKKPGESLKISCKGSGYSFTSYWIAWVRQMPGKGLEYMGLIYPGDSDTKYSPSFQGQVTISVDKSVSTAYLQWSSLKPSDSAVYFCARHDVGYCSSSNCAKWPEYFQHWGQGTLVTVSSGGGGSGGGGSGGGGSQSVLTQPPSVSAAPGQKVTISCSGSSSNIGNNYVSWYQQLPGTAPKLLIYGHTNRPAGVPDRFSGSKSGTSASLAISGFRSEDEADYYCASWEYSLWGWVFGGGTKLTVLG
B4: C6ML3-2 (scFv)
scFv: QVQLLQSGAELKKPGESLKISCKGSGYSFTSYWIAWVRQMPGKGLEYMGLIYPGDSDTKYSPSFQGQVTISVDKSVSTAYLQWSSLKPSDSAVYFCARHDVGYCSSSNCAKWPEYFQHWGQGTLVTVSSGGGGSGGGGSGGGGSQSVLTQPPSVSAAPGQKVTISCSGSSSNIGNNYVSWYQQLPGTAPKLLIYGHTNRPAGVPDRFSGSKSGTSASLAISGFRSEDEADYYCAAWDHSLSGWVFGGGTKLTVLG
B5: C6ML3-8 (scFv)
scFv: QVQLLQSGAELKKPGESLKISCKGSGYSFTSYWIAWVRQMPGKGLEYMGLIYPGDSDTKYSPSFQGQVTISVDKSVSTAYLQWSSLKPSDSAVYFCARHDVGYCSSSNCAKWPEYFQHWGQGTLVTVSSGGGGSGGGGSGGGGSQSVLTQPPSVSAAPGQKVTISCSGSSSNIGNNYVSWYQQLPGTAPKLLIYGHTNRPAGVPDRFSGSKSGTSASLAISGFRSEDEADYYCAAWDHLRWGWVFGGGTKLTVLG
B6: C6ML3-1 (scFv)
scFv: QVQLLQSGAELKKPGESLKISCKGSGYSFTSYWIAWVRQMPGKGLEYMGLIYPGDSDTKYSPSFQGQVTISVDKSVSTAYLQWSSLKPSDSAVYFCARHDVGYCSSSNCAKWPEYFQHWGQGTLVTVSSGGGGSGGGGSGGGGSQSVLTQPPSVSAAPGQKVTISCSGSSSNIGNNYVSWYQQLPGTAPKLLIYGHTNRPAGVPDRFSGSKSGTSASLAISGFRSEDEADYYCAAWDYSLWGWVFGGGTKLTVLG
B7: C6ML3-24 (scFv)
scFv: QVQLLQSGAELKKPGESLKISCKGSGYSFTSYWIAWVRQMPGKGLEYMGLIYPGDSDTKYSPSFQGQVTISVDKSVSTAYLQWSSLKPSDSAVYFCARHDVGYCSSSNCAKWPEYFQHWGQGTLVTVSSGGGGSGGGGSGGGGSQSVLTQPPSVSAAPGQKVTISCSGSSSNIGNNYVSWYQQLPGTAPKLLIYGHTNRPAGVPDRFSGSKSGTSASLAISGFRSEDEADYYCAAWDEQIFGWVFGGGTKLTVLG
B8: C6ML3-22 (scFv)
scFv: QVQLLQSGAELKKPGESLKISCKGSGYSFTSYWIAWVRQMPGKGLEYMGLIYPGDSDTKYSPSFQGQVTISVDKSVSTAYLQWSSLKPSDSAVYFCARHDVGYCSSSNCAKWPEYFQHWGQGTLVTVSSGGGGSGGGGSGGGGSQSVLTQPPSVSAAPGQKVTISCSGSSSNIGNNYVSWYQQLPGTAPKLLIYGHTNRPAGVPDRFSGSKSGTSASLAISGFRSEDEADYYCAAWDASLSGWVFGGGTKLTVLG
B9: C6ML3-17 (scFv)
scFv: QVQLLQSGAELKKPGESLKISCKGSGYSFTSYWIAWVRQMPGKGLEYMGLIYPGDSDTKYSPSFQGQVTISVDKSVSTAYLQWSSLKPSDSAVYFCARHDVGYCSSSNCAKWPEYFQHWGQGTLVTVSSGGGGSGGGGSGGGGSQSVLTQPPSVSAAPGQKVTISCSGSSSNIGNNYVSWYQQLPGTAPKLLIYGHTNRPAGVPDRFSGSKSGTSASLAISGFRSEDEADYYCASWDYYRSGWVFGGGTKLTVLG
B10: C6ML3-16 (scFv)
scFv: QVQLLQSGAELKKPGESLKISCKGSGYSFTSYWIAWVRQMPGKGLEYMGLIYPGDSDTKYSPSFQGQVTISVDKSVSTAYLQWSSLKPSDSAVYFCARHDVGYCSSSNCAKWPEYFQHWGQGTLVTVSSGGGGSGGGGSGGGGSQSVLTQPPSVSAAPGQKVTISCSGSSSNIGNNYVSWYQQLPGTAPKLLIYGHTNRPAGVPDRFSGSKSGTSASLAISGFRSEDEADYYCASWDYYRSGWVFGGGTKLTVLG
B11: C6ML3-25 (scFv)
scFv: QVQLLQSGAELKKPGESLKISCKGSGYSFTSYWIAWVRQMPGKGLEYMGLIYPGDSDTKYSPSFQGQVTISVDKSVSTAYLQWSSLKPSDSAVYFCARHDVGYCSSSNCAKWPEYFQHWGQGTLVTVSSGGGGSGGGGSGGGGSQSVLTQPPSVSAAPGQKVTISCSGSSSNIGNNYVSWYQQLPGTAPKLLIYGHTNRPAGVPDRFSGSKSGTSASLAISGFRSEDEADYYCAAWDNRHSGWVFGGGTKLTVLG
B12: C6ML3-18 (scFv)
scFv: QVQLLQSGAELKKPGESLKISCKGSGYSFTSYWIAWVRQMPGKGLEYMGLIYPGDSDTKYSPSFQGQVTISVDKSVSTAYLQWSSLKPSDSAVYFCARHDVGYCSSSNCAKWPEYFQHWGQGTLVTVSSGGGGSGGGGSGGGGSQSVLTQPPSVSAAPGQKVTISCSGSSSNIGNNYVSWYQQLPGTAPKLLIYGHTNRPAGVPDRFSGSKSGTSASLAISGFRSEDEADYYCASWDASLWGWVFGGGTKLTVLG
B13: C6ML3-26 (scFv)
scFv: QVQLLQSGAELKKPGESLKISCKGSGYSFTSYWIAWVRQMPGKGLEYMGLIYPGDSDTKYSPSFQGQVTISVDKSVSTAYLQWSSLKPSDSAVYFCARHDVGYCSSSNCAKWPEYFQHWGQGTLVTVSSGGGGSGGGGSGGGGSQSVLTQPPSVSAAPGQKVTISCSGSSSNIGNNYVSWYQQLPGTAPKLLIYGHTNRPAGVPDRFSGSKSGTSASLAISGFRSEDEADYYCAAWDDSRSGWVFGGGTKLTVLG
B14: C6ML3-20 (scFv)
scFv: QVQLLQSGAELKKPGESLKISCKGSGYSFTSYWIAWVRQMPGKGLEYMGLIYPGDSDTKYSPSFQGQVTISVDKSVSTAYLQWSSLKPSDSAVYFCARHDVGYCSSSNCAKWPEYFQHWGQGTLVTVSSGGGGSGGGGSGGGGSQSVLTQPPSVSAAPGQKVTISCSGSSSNIGNNYVSWYQQLPGTAPKLLIYGHTNRPAGVPDRFSGSKSGTSASLAISGFRSEDEADYYCAAWEQSLWGWVFGGGTKLTVLG
B15: C6ML3-28 (scFv)
scFv: QVQLLQSGAELKKPGESLKISCKGSGYSFTSYWIAWVRQMPGKGLEYMGLIYPGDSDTKYSPSFQGQVTISVDKSVSTAYLQWSSLKPSDSAVYFCARHDVGYCSSSNCAKWPEYFQHWGQGTLVTVSSGGGGSGGGGSGGGGSQSVLTQPPSVSAAPGQKVTISCSGSSSNIGNNYVSWYQQLPGTAPKLLIYGHTNRPAGVPDRFSGSKSGTSASLAISGFRSEDEADYYCASWDYALSGWVFGGGTKLTVLG
B16: C6ML3-21 (scFv)
scFv: QVQLLQSGAELKKPGESLKISCKGSGYSFTSYWIAWVRQMPGKGLEYMGLIYPGDSDTKYSPSFQGQVTISVDKSVSTAYLQWSSLKPSDSAVYFCARHDVGYCSSSNCAKWPEYFQHWGQGTLVTVSSGGGGSGGGGSGGGGSQSVLTQPPSVSAAPGQKVTISCSGSSSNIGNNYVSWYQQLPGTAPKLLIYGHTNRPAGVPDRFSGSKSGTSASLAISGFRSEDEADYYCAAWDYSQSGWVFGGGTKLTVLG
B17: C6ML3-A3 (scFv)
scFv: QVQLLQSGAELKKPGESLKISCKGSGYSFTSYWIAWVRQMPGKGLEYMGLIYPGDSDTKYSPSFQGQVTISVDKSVSTAYLQWSSLKPSDSAVYFCARHDVGYCSSSDCAKWPEYFQHWGQGTLVTVSSGGGGSGGGGSGGGGSQSVLTQPPSVSAAPGQKVTISCSGSSSNIGNNYVSWYQQLPGTAPKLLIYGHTNRPAGVPDRFSGSKSGTSASLAISGFRSEDEADYYCASWDYTLSGWVFGGGTKLTVLG

These binders were tested against T1, c-erbB-2 ECD with a Ser-Gly-His6 C-terminal fusion (UniProt P04626 23-652) (assay: SPR BIAcore).
T1 construct: extracellular domain; Expressed from CHO cells, IMAC purified; coupled to a CM5 chip, coated on plates, or biotinylated with NHS-LC-biotin; also called c-erbB-2 extracellular domain; biotinylated c-erbB-2 ECD
Work on B1 yielded a Kd of 2.3 nM and a koff of 0.0014 s⁻¹.
In the case of B2, the Kd is reported as 4.3 nM and the koff is reported as 0.002 s⁻¹.
With B3 the Kd was 3.5 nM and the koff was 0.0014 s⁻¹.
In the case of B4, the Kd is reported as 2.8 nM and the koff is reported as 0.002 s⁻¹.
B5 was tested, and the Kd was 2.6 nM and the koff was 0.0017 s⁻¹.
For B6, the Kd was 6.7 nM and the koff was 0.002 s⁻¹.

Biological target: T1, c-erbB-2 ECD with a Ser-Gly-His6 …
Experiment: SPR BIAcore
Remark: another data set of the same source
Work on B7 yielded a Kd of 12.4 nM and a koff of 0.0079 s⁻¹.
With B8 the Kd was 8.3 nM and the koff was 0.0036 s⁻¹.
B9 gave a Kd of 5 nM and a koff of 0.0017 s⁻¹.
B10 was tested, and the Kd was 5 nM and the koff was 0.0017 s⁻¹.
B11 showed a Kd of 7.4 nM and a koff of 0.0044 s⁻¹.
Work on B12 yielded a Kd of 2.4 nM and a koff of 0.00062 s⁻¹.
For B13, the Kd was 8.3 nM and the koff was 0.005 s⁻¹.
B14 was tested, and the Kd was 3 nM and the koff was 0.0014 s⁻¹.
B15 gave a Kd of 2.5 nM and a koff of 0.0017 s⁻¹.
In the case of B16, the Kd is reported as 4.5 nM and the koff is reported as 0.0022 s⁻¹.

Biological target: T1, c-erbB-2 ECD with a Ser-Gly-His6 …
Experiment: SPR BIAcore
Remark: another data set of the same source
Method: All assays were performed in triplicate. Briefly, […] of radioiodinated sFv was added to 5×10^6 SK-OV cells in the presence of increasing concentrations of unlabeled sFv from the same preparation. After a 30 minute incubation at 20° C., the samples were washed with PBS at 4° C. and centrifuged at 500 g. The amount of labeled sFv bound to the cells was determined by counting the pellets in a gamma counter and the K_a, and K_d were calculated using the EBDA program (V 2.0, G. A. McPherson, 1983). The K_d of all the other isolated sFv were determined using surface plasmon resonance in a BIAcore (Pharmacia). In a BIAcore flow cell, approximately 1400 resonance units (RU) of c-erbB-2 ECD (25 μg/ml in 10 mM sodium acetate, pH 4.5) was coupled to a CM5 sensor chip (Johnsson et al. (1991), supra). Association and dissociation-rates were measured under continuous flow of […] using a concentration range from 50 to 800 nM. Rate constant $kon$ was determined from a plot of (1(dR/dt))/t vs concentration (Karlsson et al. (1991), supra). Rate constant $Hoff$ was determined from the dissociation part of the sensorgram at the highest concentration of sFv analyzed.
Dashes indicate sequence identity. Mutations arising from PCR error and located outside V_H CDR3 are listed under the heading other mutations. F = frequency of isolated scFv. *$koff$ determined from unpurified scFv samples. Underline indicates mutated residue.
For B17, the Kd was 16 nM and the koff was 0.0063 s⁻¹.

Source: patent US6512097
